According to US20210115135A1 (ZHEJIANG SHIMAI PHARMACEUTICAL, published 2021):

Key:
[1] = target: T1, LAG3 of the Promega LAG3-MHCII Blockade Bioassay Kit (Cat. No.: CS194802) (UniProt P18627 23-525, limits assumed); experiment: cell-based or functional assay
T1 sequence (looked up): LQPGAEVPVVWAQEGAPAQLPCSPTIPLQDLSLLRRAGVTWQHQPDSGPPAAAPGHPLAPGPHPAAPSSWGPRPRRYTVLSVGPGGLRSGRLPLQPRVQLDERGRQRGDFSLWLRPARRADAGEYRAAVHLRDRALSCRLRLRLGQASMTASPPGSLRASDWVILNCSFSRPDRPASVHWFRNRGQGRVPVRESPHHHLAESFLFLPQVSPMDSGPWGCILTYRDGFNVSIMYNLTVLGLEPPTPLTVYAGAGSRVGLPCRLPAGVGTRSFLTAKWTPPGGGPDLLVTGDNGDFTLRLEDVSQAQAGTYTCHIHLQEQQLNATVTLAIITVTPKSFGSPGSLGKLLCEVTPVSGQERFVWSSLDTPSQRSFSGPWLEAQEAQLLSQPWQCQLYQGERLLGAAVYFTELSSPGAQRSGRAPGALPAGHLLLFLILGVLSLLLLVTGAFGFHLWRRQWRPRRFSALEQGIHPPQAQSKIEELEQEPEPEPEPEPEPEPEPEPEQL

[2] = target: T2, recombinant human LAG3 (Sino Biological Inc.) (human, UniProt P18627 23-450); experiment: ELISA, recombinant human LAG3 coated, IgG detected by anti-human IgG (Fc-specific)-HRP
T2 construct: Bought recombinant protein; also called CD223; biotinylated recombinant human LAG3
T2 sequence (looked up): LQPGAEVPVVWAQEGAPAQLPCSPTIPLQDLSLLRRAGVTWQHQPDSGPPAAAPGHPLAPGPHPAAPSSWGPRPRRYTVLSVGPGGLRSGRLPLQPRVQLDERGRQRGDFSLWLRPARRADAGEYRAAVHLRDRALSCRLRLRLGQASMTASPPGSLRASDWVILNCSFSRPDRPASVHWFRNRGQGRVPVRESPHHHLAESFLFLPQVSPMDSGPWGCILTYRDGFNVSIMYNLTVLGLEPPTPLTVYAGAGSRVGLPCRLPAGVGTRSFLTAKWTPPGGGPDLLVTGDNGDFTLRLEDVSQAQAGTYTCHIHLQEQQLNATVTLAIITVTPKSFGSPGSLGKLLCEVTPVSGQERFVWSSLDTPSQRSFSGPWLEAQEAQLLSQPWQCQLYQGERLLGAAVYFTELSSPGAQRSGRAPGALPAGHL
Experimental: ELISA was performed according to standard protocols. Briefly, recombinant human LAG3 (Sino Biological Inc.) was coated on Corning EIA/RIA high-binding 96-well plates (Corning Inc.) at 50 ng per well overnight at 4° C. and blocked with 3% nonfat milk in PBS (pH7.4). Fivefold serially diluted antibodies were added and incubated at room temperature for 2 h. The plates were washed with PBS containing 0.05% Tween 20. Bound Fab and IgG antibodies were detected by HRP-conjugated anti-FLAG tag antibody and HRP-conjugated anti-human IgG (Fe-specific) antibody (Sigma-Aldrich), respectively. The assay was developed at room temperature with TMB substrate (Sigma-Aldrich) and monitored at 450 nm with a microplate reader. The half-maximal binding (EC₅₀) was calculated by fitting the data to the Langmuir adsorption isotherm. DNV3 IgG1 and IgG4 were cloned into the plasmid vectors pDin1 and pDin4, respectively. They were expressed and purified from transiently transfected 293 freestyle cell cultures with a yield of […]. In ELISA, both DNV3 IgG1 and IgG4 bound to recombinant human LAG3 with an EC₅₀ of approximately 0.5 nM (FIG. 5).

[3] = target: T2, recombinant human LAG3 (Sino Biological …); experiment: ELISA, recombinant human LAG3 coated, Fab detected by anti-FLAG-HRP
Experimental: The hexahistidine-tagged antibodies were expressed in E. coli strain HB2151 and purified from the soluble fraction of periplasm by using the Ni-NTA resin. 7 monoclonal antibodies against human LAG3 were selected by panning a large phage-display library of naïve human antibodies in the format of antigen-binding fragment (Fab). Then ELISA was performed according to standard protocols. Briefly, recombinant human LAG3 (Sino Biological Inc.) was coated on Corning EIA/RIA high-binding 96-well plates (Corning Inc.) at 50 ng per well overnight at 4° C. and blocked with 3% nonfat milk in PBS (pH7.4). Fivefold serially diluted antibodies were added and incubated at room temperature for 2 h. The plates were washed with PBS containing 0.05% Tween 20. Bound antibodies were detected by HRP-conjugated anti-FLAG tag antibody (Sigma-Aldrich). The assay was developed at room temperature with TMB substrate (Sigma-Aldrich) and monitored at 450 nm with a microplate reader.

[4] = target: T2, recombinant human LAG3 (Sino Biological …); experiment: phage panning and monoclonal phage ELISA on recombinant human LAG3
Experimental: We have recently constructed a large (size, 10¹¹) phage-display naïve human Fab library with peripheral blood B cells from about 30 healthy individuals according to the previously published protocols (de Haard et al., J Biol Chem 1999, 274: 18218-18230). This library was used for selection of antibodies against recombinant human LAG3 conjugated to magnetic beads (Dynabeads M-270 epoxy; DYNAL Inc.) as described previously (Zhu et al., J Virol 2006, 80:891-899) except that we used 5, 1 and 0.1 μg of antigen in the first, second and third round of panning, respectively. Clones that bound to the antigen were identified from the third round of biopanning by using monoclonal phage ELISA as described (Zhu et al., J Virol 2006, 80:891-899).

B1: DNV3 IgG4 (antibody)
heavy: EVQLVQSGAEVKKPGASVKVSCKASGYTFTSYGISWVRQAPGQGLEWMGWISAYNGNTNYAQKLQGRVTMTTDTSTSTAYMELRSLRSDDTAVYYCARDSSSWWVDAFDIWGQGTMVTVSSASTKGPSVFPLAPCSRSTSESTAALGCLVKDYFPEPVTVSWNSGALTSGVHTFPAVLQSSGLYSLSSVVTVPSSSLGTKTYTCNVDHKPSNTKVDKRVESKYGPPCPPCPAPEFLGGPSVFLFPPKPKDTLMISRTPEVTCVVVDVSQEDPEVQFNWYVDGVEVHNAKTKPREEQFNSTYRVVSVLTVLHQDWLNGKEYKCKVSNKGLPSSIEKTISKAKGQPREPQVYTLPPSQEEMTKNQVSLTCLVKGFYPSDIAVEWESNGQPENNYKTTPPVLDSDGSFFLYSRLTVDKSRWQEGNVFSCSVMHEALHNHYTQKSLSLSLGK
light: QSVLTQPPSVSAAPGQKVTISCSGSTSNIAINYVSWYQQVPGTVPKLLIYDDDKRPSGIPDRFSGSKSGTSATLDISGLQTGDEAHYYCGVWDNSLLAVLFGGGTSLTVLGQPKAAPSVTLFPPSSEELQANKATLVCLISDFYPGAVTVAWKADSSPVKAGVETTTPSKQSNNKYAASSYLSLTPEQWKSHRSYSCQVTHEGSTVEKTVAPTECS
notes: Human IgG4 made in 293FS cells; also called original DNV3 IgG4
[1]
  T cell activation, EC50: 8.7 nM
[2]
  EC50: ~0.5 nM

B2: DNV5 Fab (Fab, V domains shown)
VH: QVQLVQSGAEVKKPGASVKVSCKASGGTFSSYAISWVRQAPGQGLEWMGGIIPIFGTANYAQKFQGRVTITADESTSTAYMELSSLRSEDTAVYYCARASPPAAYYYYYGMDVWGQGTTVTVSS
VL: DIQMTQSPSSLSASVGDRVTITCQASQDISNYLNWYQQKPGKAPKLLIYAASILQSGVPSRFSGSGSGTDFTLTISSLQPEDFATYYCQQSHSYSETFGQGTKVEIK
notes: Human Fab from a phage library, hexahistidine-tagged, detected through a FLAG tag, made in E. coli HB2151
[3]
  EC50: ≤ 10 nM

B3: DNV6 Fab (Fab, V domains shown)
VH: EVQLVQSGAEVKKPGESLKISCKGSGYSFTSYWIGWVRQMPGKGLEWMGIIYPGDSDTRYSPSFQGQVTISADKSISTAYLQWSSLKASDTAMYYCASGAPGYYYDSSGYYAFDIWGQGTMVTVSS
VL: QSVVTQPPSVSGAPGQRVTVSCTGSSSNIGADFDVHWYQQLPGTAPKLLIYGNTNRPSGVPDRFSGSKSGTSASLAITGLQAEDEADYYCQSYDNSLSGVVFGGGTKVTVL
notes: as for B2
[3]
  EC50: ≤ 10 nM

B4: DNV2 Fab (Fab, V domains shown)
VH: EVQLVQSGAEVKKPGASVKVSCKASGGTFSSYTISWVRQAPGQGLEWMGGIIPIFGTANYAQKFQGRVTITADKSTSTAYMELSSLRSEDTAVYYCARDPVFDYWGQGTLVTVSS
VL: DIQLTQSPSSLSASVGDRVTITCRASQNIGTYLNWYQQKPGKAPKLLIYAASSLQSGVPSRFSGSGSGTDFTLTISSLQPEDFATYYCQQLNSYPITFGQGTRLEIK
notes: as for B2
[4]
  binding result: binds

B5: DNV4 Fab (Fab, V domains shown)
VH: EVQLVQSGAEVKKPGSSVKVSCKASGGTFSSYAISWVRQAPGQGLEWMGGIIPIFGTANYAQKFQGRVTITADESTSTAYMELSSLRSEDTAVYYCAREKPTGGYYGMDVWGKGTLVTVSS
VL: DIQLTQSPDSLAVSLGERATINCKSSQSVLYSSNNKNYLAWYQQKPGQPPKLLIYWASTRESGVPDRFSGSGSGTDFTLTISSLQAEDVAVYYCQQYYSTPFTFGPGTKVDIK
notes: as for B2
[4]
  binding result: binds

B6: DNV7 Fab (Fab, V domains shown)
VH: EVQLVESGAEVKKPGSSVKVSCKASGGTFSSYAISWVRQAPGQGLEWMGGIIPIFGTANYAQKFQGRVTITADKSTSTAYMELSSLRSEDTAVYYCALDGKSGFDLAFDIWGQGTMVTVSS
VL: DIQLTQSPSSLSASVGDRVTITCRASRRISSYLNWYQQKQGKAPQLLIYAASSLQSGVPSRFSGSGSGTEFTLTISSLQPEDFATYYCQQFNSYPLTFGGGTKVEIK
notes: as for B2
[4]
  binding result: binds

B7: DNV3 IgG1 (antibody)
heavy: not shown
light: B1 light
notes: Human IgG1 made in 293FS cells
[2]
  EC50: ~0.5 nM
